# B1: fp.002 (antibody, V domains shown)
# VH: VQLVESGGGVVQPGTSLRLSCAGSGFNFDNYAIHWVRQAPGQGLEWVAIISYEARNKKYAGSVTGRFSISRDNSKSMVYLQMDSLRGEDTAVYYCARDLFLSDYDRSGYDPTRGGFDLWGQGTLVTVSS
# VL: EIVMTQSPATLSVSPGERATLSCRASQSVSSSLAWYQHKLGQAPRLLIYGASTRATGIPGRFSGSGSGTEFTLTISSLQSEDVAIYYCQQYGDWPLVTFGGGTKVEIK
# B2: fp.006 (antibody, V domains shown)
# VH: VQLVESGGGVVQPGGSLRLSCAASGFNFNNYALHWVRQAPGKGLEWVAIISYEARNKKYGVSVMGRFSISRDNSKSIMYLEMNSLRVEDTGVYYCARDLFLSDYDRSGYDPTRGGFDHWGQGTLVTVSS
# VL: EIVMTQSPATLSVSPGERATLSCRASQSVSSSLAWYQHRFGQAPRLLISGASTRATGIPGRFSGSGSGTEFTLTISSLQSEDVAVYYCQQYGDWPLVTFGGGTKVEIK
# B3: fp.009 (antibody, V domains shown)
# VH: VQLVESGGGVVQPGTSLTLSCEASGFTFSNYAMHWVRQAPGKGLEWVAIISFDTRNKKFAGSVQGRFSISRDNAKNSIYLQMNNLRPEDTGIYYCARDVFLSDYDSRGFDRTRGGFDYWGQGTLVTVSS
# VL: EIVMTQSPATLSVSPGEKATLSCRASESVGSSLAWYQQKLGQAPRLLIYGASTRATGIPARFSGSGSGAEFTLTISSLQSEDFAIYYCQQYGDWPLLTFGGGTKVEIK
# B4: fp.003 (antibody, V domains shown)
# VH: VQLVESGGGVVQPGTSLRLSCTASGFSFSNYAMHWVRQAPGKGLEWVAIISFDTRNKEFADSVKGRFSISRDNSKNSLNLQMNSLRPEDTGVYYCARDLFLSDYDSRGYEPSRGGFDYWGQGTLVTVSS
# VL: EIVMTQSPATLSVSPGERATLSCRASQSVSSSLAWYQQKLGQPPRLLIYGASTRATGIPARFSGSGSGTEFTLTISSLKSEDSAVYYCQQYNDWPLLSFGGGTKVEIK
# B5: fp.005 (antibody, V domains shown)
# VH: VQLVESGGGVVQPGNSLRLSCAASGFRFNNYAMHWVRQAPGKGLEWVAIISYEARNEKYADSVKGRFSISRDNAKNTLYLQMNSLRADDTGVYYCARDLFLSDYDTSGYDRTRGGFDYWGQGALVTVSS
# VL: EIVMTQSPATLSVSPGERATLSCRASQSVSNGLAWYQHRFGQPPRLLIYGASTRATGIPTRFSGSGSGTEFTLTISSLQSEDFAVYYCQQYDDWPLITFGGGTKVEIK
# B6: fp.004 (antibody, V domains shown)
# VH: VQLVESGGGVVQPGTSLRLSCVASGFTFSNYAMHWVRQAPGKGLEWVAIISFDTRNTASAASVKGRFNISRDNSKNSLYLQMNSLRPEDTGVYYCARDLFLSDYDSRGYDPITGGFDCWGQGTLVTVSS
# VL: EIVMTQSPAALSVSPGEGATLSCRASQSVGSRLAWYQQKLGRPPRLLIYGASTRATGIPARFSGSGSGTEFTLTISSLQSEDFAVYYCQQYNDWPLLTFGGGTKVKIK
# B7: CV3-25 (antibody)
# chain 1: QVQLVESGAEVKKPGESLKISCKGSGYTFTRYWIGWVRQMPGKGLEWMGIIYPGDSDTRYSPSFQGHVTISADKSISTAYLQWNSLKASDTAMYYCARLPQYCSNGVCQRWFDPWGQGTLVTVSS
# chain 2: EIVLTQSPSSVSASVGDRVTITCRASQGISSWLAWYQQKPGKAPKLLIYAASSLQSGVPSRFSGSGSGTDFTLTISSLQPEDFATYYCQQGNSFPYTFGQGTNLEIK
# B8: hr2.094 (antibody, V domains shown)
# VH: EVQLVESGGGLVQPGGSLRLSCAASGFTFSTFWMTWVRQAPGKGLEWVANIKSDGSEKYYVDSVKGRFTISRDNAKNSLYLQMNSLRAEDTAVYYCATWFGLHWGQGTLVTVSS
# VL: DIVMTQSPDSLAVSLGERASINCKSSQTVLYSSNNKNYLAWYQQKPGQPPKLLIHWASTRDSGVPDRFSGSGSGTDFTLTISSLQAEDVAVYYCQQYHRIPWTFGRGTKVEIK
# B9: hr2.012 (antibody, V domains shown)
# VH: QVQLVQSGAEVKKPGASVKVSCKASGYTFTSHYIHWVRQAPGQGLEWMGIIKPSGGNTIYAQTFQGRVTMTRDTSTSTVYMELRSLTSDDTAVYYCARDQDHGLQRWGQGTLVTVSS
# VL: QSVLTQPPSVSAPPGQKVTISCSGSSSNIGNNFVSWYQQLPGTAPKLLIYDNIERPSGIPDRFSGSRSGTSATLGITGLQTGDEADYYCGTWDTSLGAWVFGGGTKVTVL
# B10: hr2.013 (antibody, V domains shown)
# VH: QVQLVQSGAEVKKPGASVKISCKASGYTFTNNYMNWVRQAPGQGLEWMGIIKPSSGSTIYAHKFQGRVTMTRDTSTSTVYMEVRSLTSEDTAVYYCARDQDHGLQNWGQGTLVTVSS
# VL: QSVLTQPPSVSAASGQKVTIYCSGSSSNIASNFVSWYQQFPGTAPKLLIYDNNQRPSGIPDRFSGSRSGTSATLGITGLQTGDEADYYCGTWDTSLGAWVFGGGTKLTVL
# B11: hr2.015 (antibody, V domains shown)
# VH: QVQLVQSGAEVKKPGASVKVSCKASGYTFSSYYVNWVRQAPGQGLEWLGIINRSGSSTIYAQKFQGRVTMTRDTSTSTVYLELSSLRSEDTAVYYCARDQDHALHWGQGTLVTVSS
# VL: QSVLTQPPSVSAAPGQKVTISCSGSSSNIGSNYVSWYQQLPGTAPKLLIYDNSERPSGIPDRFSGSRSGTSATLGITGLQTGDEADYYCGTWDTSLSAWVFGGGTKLTVL
# B12: hr2.016 (antibody, V domains shown)
# VH: EVQLLESGGGLVQPGGSLRLSCAASGFMFSKYAMTWVRQTPGKGLEWVSVISGGGGSTYYADSVKGRFTISRDNSKNTLYLQMNSLRAEDTAVYYCAKLLVVFVIDYWGQGALVTVSS
# VL: EIVLTQSPGTLSLSPGERATLFCRASQSVSSNLAWYQQKPGRAPRLLISGASSRATGIPDRFSGSGSGTDFTLTISRLEPEDFAVYYCQQYGSSPPTFGQGTKVEIK
# How the values were obtained:
# Assay in all cases: peptide ELISA
# [1] = target: NL63 FP peptide (NL63), Q6Q1S2
# 229E FP peptide (229E) = target: 229E FP peptide (229E)
# [2] = target: MERS FP peptide (MERS), K9N5Q8
# [3] = target: SARS-CoV FP peptide (SARS-CoV), P59594
# [4] = target: Hu_PDCoV FP peptide (Hu_PDCoV)
# [5] = target: SARS-CoV-2 FP peptide (SARS-CoV-2)
# HKU1 FP peptide (HKU1) = target: HKU1 FP peptide (HKU1)
# [6] = target: OC43 FP peptide (OC43), P36334
# [7] = target: FCoV-KU2 FP peptide (FCoV-KU2)
# [8] = target: CCoV_HuPn FP peptide (CCoV_HuPn)
# [9] = target: SARS-CoV-2 HR2 peptide (SARS-CoV-2), P0DTC2
# [10] = target: HKU9 HR2 peptide (HKU9), A3EXG6
# [11] = target: HKU5 HR2 peptide (HKU5), A3EXD0
# MHV HR2 peptide (MHV) = target: MHV HR2 peptide (MHV)
# [12] = target: HKU4 HR2 peptide (HKU4), A3EX94
# SADS HR2 peptide (SADS) = target: SADS HR2 peptide (SADS)
Binder,EC50 [1] [µg/mL],EC50 (229E FP peptide (229E)) [µg/mL],EC50 [2] [µg/mL],EC50 [3] [µg/mL],EC50 [4] [µg/mL],EC50 [5] [µg/mL],EC50 (HKU1 FP peptide (HKU1)) [µg/mL],EC50 [6] [µg/mL],EC50 [7] [µg/mL],EC50 [8] [µg/mL],EC50 [9] [µg/mL],EC50 [10] [µg/mL],EC50 [11] [µg/mL],EC50 (MHV HR2 peptide (MHV)) [µg/mL],EC50 [12] [µg/mL],EC50 (SADS HR2 peptide (SADS)) [µg/mL]
B1,0.0245,0.0176,0.0358,0.0285,0.0215,0.032,0.0256,0.0211,–,–,–,–,–,–,–,–
B2,0.0144,0.0121,0.0228,0.0157,–,0.0331,0.0168,0.0134,0.0149,–,–,–,–,–,–,–
B3,0.0214,0.0236,0.0346,0.0251,0.0276,0.038,0.0241,0.026,–,0.021,–,–,–,–,–,–
B4,0.0249,0.0201,0.0349,0.0285,–,0.0369,0.0238,0.0149,0.0295,–,–,–,–,–,–,–
B5,0.0231,0.0175,0.04,–,–,0.0295,–,0.0244,0.028,–,–,–,–,–,–,–
B6,0.0267,0.0202,0.0386,0.03,0.0343,0.0352,0.0272,0.0222,–,–,–,–,–,–,–,–
B7,–,–,–,–,–,–,–,–,–,–,0.00968,0.358,1.57,0.0239,–,–
B8,–,–,–,–,–,–,–,–,–,–,0.0835,0.227,0.0192,0.0189,0.0157,–
B9,–,–,–,–,–,–,–,–,–,–,0.0196,–,0.0204,0.0177,0.0184,0.023
B10,–,–,–,–,–,–,–,–,–,–,0.0317,–,0.0292,0.043,0.0181,0.042
B11,–,–,–,–,–,–,–,–,–,–,0.047,–,0.0467,0.0543,0.05,0.0731
B12,–,–,–,–,–,–,–,–,–,–,–,–,0.0256,0.0266,0.00744,0.0738
